In patent US20240084005A1 (ALLAKOS, published 2024):
Where a chain is given by its changes, count along the chain named.

B1: AK20 (wild-type human IgG1 Fc) (antibody, V domains shown)
VH: QVQLQESGPGLVKPSETLSLTCTVSGFSLTSYGVSWIRQPPGKGLEWIGVIWHDGSTSYHPSLKSRVTISRDTSKNQVSLKLSSVTAADTAVYYCASDGYSGTFAYWGQGTLVTVSS
VL: QIVVTQSPATLSLSPGERATLSCTASSSVSSSYLHWYQQKPGQAPRLLIYSTSILASGIPARFSGSGSGTDFTLTISSLQPEDFAVYYCHQYHRSPYTFGQGTKLEIK
notes: Tested after forced degradation
B2: AK21 (wild-type human IgG1 Fc) (antibody, V domains shown)
VH: B1 VH with T30S, S58N, H60N
VL: B1 VL
notes: as for B1
B3: AK10 (antibody, V domains shown)
VH: EVQLQQSGPELMKPGASVKISCKASGYTFTDYYMNWVKQSHGKSLEWIGDINPKIGDTIYNQKFKGKATLTVDKSSSTAYMELRSLTSEDSAVYYCARWDYYGSSLFDYWGQGTTLTVSS
VL: DIVMTQSHKFMSTSVGDRVSITCKASQDVTTAVAWYQQKPGQSPKLLIYWASTRHTGVPDRFTGTGSGTDYTLTISNVQAEDLALYYCQQHYSTPYTFGGGTKLEIK
notes: also called anti-Siglec-6 mAb AK10

Key:
[1] = target: T1, Siglec-6 (antigen of Example 8) (human, UniProt O43699 27-347, limits assumed); experiment: Siglec-6 binding ELISA after 2 weeks of forced degradation (elevated temperature, low pH)
Procedure: AK20 and AK21 were further evaluated in a forced degradation stability study. AK20 and AK21 (both using a wild-type human IgG1 Fc region with normal fucosylation) were incubated for 2 weeks at elevated temperatures and low pH followed by assessment of activity using a Siglec-6 binding ELISA.

[2] = target: T1, Siglec-6 (antigen of Example 8); experiment: Siglec-6 binding ELISA after 1 week of forced degradation (elevated temperature, low pH); 1 week of forced degradation (elevated temperatures and low pH)
[3] = target: T1, Siglec-6 (antigen of Example 8); experiment: Siglec-6 binding ELISA after 1 week of forced degradation (elevated temperature, low pH)
Siglec-6 ECD Fc protein = target: T2, Siglec-6 ECD Fc protein (human, UniProt O43699 27-347); experiment: BLI (Octet Red 384), bivalent IgG on immobilized Siglec-6 ECD Fc
T2 construct: also called Siglec-6 full ECD fused to a human Fc; not shown: human Fc
Procedure: Bivalent binding affinities of IgG for Siglec-6 mAbs were measured by biolayer interferometry using a FortéBio Octet Red 384 instrument using immobilized Siglec-6 ECD Fc protein.

[4] = target: T3, Siglec-6 domain 1 fused to a human Fc (human, UniProt O43699 27-147); experiment: ELISA on Siglec-6 domain-human Fc fusions (Domain Mapping = 2)
T3 construct: also called domain 1 fusion protein; not shown: human Fc
Procedure: Domain mapping was assessed by ELISA using recombinantly expressed Siglec-6 extracellular domains fused to a human Fc containing the full ECD, domains 1 and 2, or domain 1. Siglec-6 mAbs were tested for binding to each of these domain fusion proteins and assigned domains based on their specific binding properties. Siglec-6 mAbs that bound to all three fusion proteins were assigned domain 1 binders, mAbs that bound to full ECD and domains 1 and 2 were assigned domain 2 binders, and mAbs that bound to only the full ECD protein were assigned domain 3 binders.

T1 sequence (O43699 27-347 limits assumed): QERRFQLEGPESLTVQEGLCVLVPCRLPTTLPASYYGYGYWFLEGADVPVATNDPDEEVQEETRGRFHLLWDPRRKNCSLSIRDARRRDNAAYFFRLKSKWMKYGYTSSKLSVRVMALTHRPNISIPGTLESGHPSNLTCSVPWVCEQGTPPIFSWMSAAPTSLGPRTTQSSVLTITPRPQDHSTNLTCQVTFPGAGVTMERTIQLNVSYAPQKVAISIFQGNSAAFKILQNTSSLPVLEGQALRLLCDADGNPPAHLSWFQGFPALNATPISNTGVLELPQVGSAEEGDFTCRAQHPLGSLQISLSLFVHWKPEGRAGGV
T2 sequence (O43699 27-347): as the sequence (O43699 27-347 limits assumed) above
T3 sequence (O43699 27-147 limits assumed): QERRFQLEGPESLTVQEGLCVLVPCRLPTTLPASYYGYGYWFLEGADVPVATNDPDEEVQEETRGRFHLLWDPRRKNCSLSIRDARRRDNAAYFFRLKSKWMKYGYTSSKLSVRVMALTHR

| Binder | EC50 [1] | EC50 [2] | EC50 [3] | Kd (Siglec-6 ECD Fc protein) | binding result [4] |
| --- | --- | --- | --- | --- | --- |
| B1 | 6.4 ng/mL | 6.5 ng/mL | – | – | – |
| B2 | 9.3 ng/mL | – | 9.1 ng/mL | – | – |
| B3 | – | – | – | 0.084 nM | no binding |
